# Results reported in the supplement of paper PMC11246515.
# ± gives the standard deviation of the averaged measurements.
# Test: total protein half-life in vivo (active degradation + dilution); higher = more stable protein
# [1] = E. coli NCM3722 delta-clpP delta-lon delta-hslV, growth: N-lim chemostat, doubling time 6 h
# [2] = E. coli NCM3722 delta-clpP, growth: N-lim chemostat, doubling time 6 h
# [3] = E. coli NCM3722 delta-hslV, growth: N-lim chemostat, doubling time 6 h
# [4] = E. coli NCM3722 delta-lon, growth: N-lim chemostat, doubling time 6 h
# [5] = E. coli NCM3722 delta-smpB, growth: N-lim chemostat, doubling time 6 h
# [6] = wild type E. coli NCM3722, growth: C-lim chemostat, doubling time 3 h
# [7] = wild type E. coli NCM3722, growth: C-lim chemostat, doubling time 6 h
# [8] = wild type E. coli NCM3722, growth: C-lim chemostat, doubling time 12 h
# [9] = wild type E. coli NCM3722, growth: N-lim chemostat, doubling time 6 h
# [10] = wild type E. coli NCM3722, growth: N-lim chemostat, doubling time 12 h
# [11] = wild type E. coli NCM3722, growth: P-lim chemostat, doubling time 6 h
# [12] = wild type E. coli NCM3722, growth: P-lim chemostat, doubling time 12 h
Sequence,total protein half-life in vivo [1],total protein half-life in vivo [2],total protein half-life in vivo [3],total protein half-life in vivo [4],total protein half-life in vivo [5],total protein half-life in vivo [6],total protein half-life in vivo [7],total protein half-life in vivo [8],total protein half-life in vivo [9],total protein half-life in vivo [10],total protein half-life in vivo [11],total protein half-life in vivo [12]
MFRQLKKNLVATLIAAMTIGQVAPAFADSADTLPDMGTSAGSTLSIGQEMQMGDYYVRQLRGSAPLINDPLLTQYINSLGMRLVSHANSVKTPFHFFLINNDEINAFAFFGGNVVLHSALFRYSDNESQLASVMAHEISHVTQRHLARAMEDQQRSAPLTWVGALGSILLAMASPQAGMAALTGTLAGTRQGMISFTQQNEQEADRIGIQVLQRSGFDPQAMPTFLEKLLDQARYSSRPPEILLTHPLPESRLADARNRANQMRPMVVQSSEDFYLAKARTLGMYNSGRNQLTSDLLDEWAKGNVRQQRAAQYGRALQAMEANKYDEARKTLQPLLAAEPGNAWYLDLATDIDLGQNKANEAINRLKNARDLRTNPVLQLNLANAYLQGGQPQEAANILNRYTFNNKDDSNGWDLLAQAEAALNNRDQELAARAEGYALAGRLDQAISLLSSASSQVKLGSLQQARYDARIDQLRQLQERFKPYTKM,4.342 ± 0.022 h,5.12 ± 1.1 h,4.86 ± 0.098 h,4.52 ± 0.32 h,4.35 ± 0.05 h,2.7 ± 0.2 h,5.08 ± 0.19 h,9.19 ± 1.1 h,4.73 ± 0.033 h,8.19 ± 1.1 h,3.46 ± 0.47 h,7.12 ± 1.7 h
MFRRRGVTLTKALLTAVCMLAAPLTQAISVGNLTFSLPSETDFVSKRVVNNNKSARIYRIAISAIDSPGSSELRTRPVDGELLFAPRQLALQAGESEYFKFYYHGPRDNRERYYRVSFREVPTRNHTRRSPTGGVVSTEPVVVMDTILVVRPRQVQFKWSFDKVTGTVSNTGNTWFKLLIKPGCDSTEEEGDAWYLRPGDVVHQPELRQPGNHYLVYNDKFIKISDSCPAKPPSAD,4.58 h,4.57 ± 0.28 h,3.66 h,4.37 h,4.89 ± 0.82 h,2.51 ± 0.53 h,3.37 h,9.74 h,3.84 h,6.84 h,–,9.993 ± 0.096 h
MFSEVMRYILDLGPTVMLPIVIIIFSKILGMKAGDCFKAGLHIGIGFVGIGLVIGLMLDSIGPAAKAMAENFDLNLHVVDVGWPGSSPMTWASQIALVAIPIAILVNVAMLLTRMTRVVNVDIWNIWHMTFTGALLHLATGSWMIGMAGVVIHAAFVYKLGDWFARDTRNFFELEGIAIPHGTSAYMGPIAVLVDAIIEKIPGVNRIKFSADDIQRKFGPFGEPVTVGFVMGLIIGILAGYDVKGVLQLAVKTAAVMLLMPRVIKPIMDGLTPIAKQARSRLQAKFGGQEFLIGLDPALLLGHTAVVSASLIFIPLTILIAVCVPGNQVLPFGDLATIGFFVAMAVAVHRGNLFRTLISGVIIMSITLWIATQTIGLHTQLAANAGALKAGGMVASMDQGGSPITWLLIQVFSPQNIPGFIIIGAIYLTGIFMTWRRARGFIKQEKVVLAE,6.09 h,–,–,–,–,–,–,–,–,–,–,–
MFSGLLIILVPLIVGYLIPLRQQAALKVINQLLSWMVYLILFFMGISLAFLDNLASNLLAILHYSAVSITVILLCNIAALMWLERGLPWRNHHQQEKLPSRIAMALESLKLCGVVVIGFAIGLSGLAFLQHATEASEYTLILLLFLVGIQLRNNGMTLKQIVLNRRGMIVAVVVVVSSLIGGLINAFILDLPINTALAMASGFGWYSLSGILLTESFGPVIGSAAFFNDLARELIAIMLIPGLIRRSRSTALGLCGATSMDFTLPVLQRTGGLDMVPAAIVHGFILSLLVPILIAFFSA,–,–,–,–,–,–,3.12 h,–,–,8.87 h,–,8.67 ± 0.3 h
MFSIKPGPRNLPIDNPTLLSWNITDGDLNSKLNTLEYLNCITNIINSCGVYPQGLKDREIISTFHAEKVINDLLKNDYKISLSPDTTYRELNKAAQRSITAPDRIGERKTWVYQRDTMIERGDNSGVYQYGRAEHFTHIISDKPSPKDKYVAYAINIPDYELAADVYNINVTSPSGQQETFKILINLEHLRQTLERKSLTAVQKSQCEIITPKKPGEAILHAFNATYQQIRENMSEFARCHYGYIQIPPVTTFRADGPETPEEEKGYWFHAYQPEDLCTIHNPMGDLQDFIALVKDAKKFGIDIIPDYTFNFMGIGGSGKNDLDYPSADIRAKISKDIEGGIPGYWQGQVLIPFIKDPVTKERKQIHPEDIHLTAKDFEASKDNISKDEWENLHALKEKRLNGMPKTTPKSDQVIMLQNQYVREMRKYGVRGLRYDAAKHSKHEQIERSITPPLKNYNERLHNTNLFNPKYHKKAVMNYMEYLVTCQLDEQQMSSLLYERDDLSAIDFSLLMKTIKAFSFGGDLQTLASKPGSTISSIPSERRILININHDFPNNGNLFNDFLFNHQQDEQLAMAYIAALPFSRPLVYWDGQVLKSTTEIKNYDGSTRVGGEAWLNKGCSTYQQLYNEFHALYIDKAGIWSAFEGVSATKNVLAFSRGDSVNINHSPHDGLVIINKGNEEVEGTWPNKLQPGIYKNMGSNSVNIIINNTRKIIPPGKVFTLRGGTLNINIPGRSALLLGKTGEPPNYLYL,4.26 ± 0.095 h,3.78 h,3.6 ± 0.55 h,3.86 ± 0.15 h,3.93 ± 0.2 h,3.14 ± 0.21 h,4.93 h,9.02 h,3.51 h,5.65 h,4.45 h,11.3 ± 3.7 h
MFTATEAVPVAKVVAGNKRYPGVVALDNVNFTLNKGEVRALLGKNGAGKSTLIRMLTGSERPDSGDIWIGETRLEGDEATLTRRAAELGVRAVYQELSLVEGLTVAENLCLGQWPRRNGMIDYLQMAQDAQRCLQALGVDVSPEQLVSTLSPAQKQLVEIARVMKGEPRVVILDEPTSSLASAEVELVISAVKKMSALGVAVIYVSHRMEEIRRIASCATVMRDGQVAGDVMLENTSTHHIVSLMLGRDHVDIAPVAPQEIVDQAVLEVRALRHKPKLEDISFTLRRGEVLGIAGLLGAGRSELLKAIVGLEEYEQGEIVINGEKITRPDYGDMLKRGIGYTPENRKEAGIIPWLGVDENTVLTNRQKISANGVLQWSTIRRLTEEVMQRMTVKAASSETPIGTLSGGNQQKVVIGRWVYAASQILLLDEPTRGVDIEAKQQIYRIVRELAAEGKSVVFISSEVEELPLVCDRILLLQHGTFSQEFHAPVNVDELMSAILSVH,–,–,–,–,–,–,–,7.2 ± 4.9 h,–,–,4.92 h,–
MFTGIVQGTAKLVSIDEKPNFRTHVVELPDHMLDGLETGASVAHNGCCLTVTEINGNHVSFDLMKETLRITNLGDLKVGDWVNVERAAKFSDEIGGHLMSGHIMTTAEVAKILTSENNRQIWFKVQDSQLMKYILYKGFIGIDGISLTVGEVTPTRFCVHLIPETLERTTLGKKKLGARVNIEIDPQTQAVVDTVERVLAARENAMNQPGTEA [P0AFU8],4.8 ± 0.2 h,4.397 ± 0.01 h,4.123 ± 0.0054 h,4.774 ± 0.047 h,4.561 ± 0.029 h,3.06 ± 0.28 h,5.3745 ± 0.003 h,12.1 ± 4.4 h,4.25 ± 0.16 h,6.8 ± 0.16 h,5.96 ± 0.6 h,11.6 ± 0.24 h
MFTIKTDDLTHPAVQALVAYHISGMLQQSPPESSHALDVQKLRNPTVTFWSVWEGEQLAGIGALKLLDDKHGELKSMRTAPNYLRRGVASLILRHILQVAQDRCLHRLSLETGTQAGFTACHQLYLKHGFADCEPFADYRLDPHSRFLSLTLCENNELP,–,1.46 ± 0.029 h,0.809 h,0.314 h,0.854 ± 0.023 h,–,–,–,1.03 ± 0.61 h,1.92 h,–,–
